From the nanobody polyreactivity screen of Harvey et al. (2022)

Test: yeast display, Sf9 membrane polyspecificity reagent, FACS + sequencing; frameworks hold sequencing errors
How it was run: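 In a synthetic yeast display library (Saccharomyces cerevisiae BJ5465), nanobody expression was induced with galactose for 36–48 hours. FACS gates were set low and high (top ~1%) using anti-HA fluorescence for expression and streptavidin fluorescence for binding of the Sf9 membrane reagent. Each polyreactivity label is drawn from the gate of origin.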

Row | Sequence | polyreactivity (PSR sort gate)
1 | QVQLVESGGGLVQAGGSLRLSCAASGITLAGYVMGWYRQAPGKERELVADISSSGDSTYYADSVKGRFTISRDNAKNTVYLQMISLKPEDTAVYYWAAEEIIPLIYKGYPFDYWGQGTQVTVSS | low polyreactivity
2 | QVQLVESGGGLVQAGGSLRLSCAASGSTLYRNAMGWYRQQPGKERELVAGITSSGTTTYYADSVKGRFTISRDNAKNTVYLQMNSLKPEDTAVYYCAARSLGFYYYDMDYWGQGTQVTVSS | low polyreactivity
3 | QVQLVESGGGLVQAGGSLRLTCAASGLTFNHNAMGWCRQAPGKERELVAAISRRGGSTYYADSVKGRFTISRDNAKNTVYLQMNSLKPEDTAVYYCAARRAWSWKIYDYWGQGTQVTVSS | high polyreactivity
4 | QVQLVESGGGLVQAGGSLRLSCAASGSIFPWYAMGWYRQAPGKERELVAAITISGGSTHYADSVKGRFTISRDNAKNTVYLQMNSLKPEDTAVYYCATPRYPSYEYWGQGTQVTVSS | low polyreactivity
5 | QVQLVESGGGLVQAGGSLRLSCAASGSTFYSYAMGWYRQAPGKERELVAAISWNGGSTYYADSVKGRFTISRDNAKNTVYLQMNRLKPEDTAVYYCAALRYVHGYDYWGQGTQVTVSS | high polyreactivity
6 | QVQLVESGGRLVQAGGSLRLSCAASGFTFARYAMGWYRQAPGKERELVARISSDGGGTDYADSVKGRFTISRDNAKNTVYLQMNSLKPEDTAVYYCYADPYSRFWGPDYGYWGQGTQVTVSS | low polyreactivity
7 | QVQLVESGGGLVQAGGSLRLSCAASGRIFRFYAMGWYRQAPGKERELVASISSTGGSTYYADSVKGRFTISRDNAKNTVYLQMNSLKPEDTAVYYCNTVYGYVTTYGYWGQGTQVTVSS | high polyreactivity
8 | QVQLVESGGGLVQAGGSLRLSCAASGSTFEVYTMGWYRQAAGKERELVADITWSGGNTYYADSVKGRFTISRDNAKNTVYLQMNSLKPEDTAVYYCAADYYHKTVYWYDYWGQGTQVTVSS | low polyreactivity
9 | QVQLVESGGGLVQAGGSLRLSCAASGSIFPRNAMGWYRQAPGKERELVAAITTTGGITHYADSVKGRFTISRDNAKNTVYLLMNSLKPEDTAVYYCNASYEYNAGRVETEYDYWGQGTKVTVSS | low polyreactivity
10 | QVQLVESGGGLVQAGGSLRLSCAASGFTFYKYAMGWYRQAPGKEREFVASITVRTGSTSYADSVKGRFTISRDNAKNTVYLQMNSLKPEDTAVYYCAAETYYYSWYYLGYTYDYWGHGTQVTVSS | high polyreactivity
11 | QVQLVESGGGLVQAGGSLRLSCAASGSTFLGNAMGWYRQAPGKERELVAAISGRGGSTYYADSVKGRFTISRDNAKNTVYLQMNSLKPEDTAVYYCAAPLYHYVQYGYWGQGTQVTVSS | high polyreactivity
12 | QVQLVESGGGLVQAGGSLRLICAASGSIFRYYVKGWYRQAPGKERELVASISYSVGRTYYADSVKGRFTISRDYAKNTVYLQMNSLKPEDTAVYYCAADRYWPYYSAYYTSYRMDYWGQGTQVTVSS | high polyreactivity
13 | QVQLVESGGGLVQAGGSLRLSCAASGRIFKRYTMGWYRQAPGKERELVAGITFSGGSTYYADSVKGRFTISRDNAKNTVYLQMHSLKPEDTAVYDCNARVPPQGWGPWKAFDYWGQGTQVTVSS | low polyreactivity
14 | QVQLVESGGGLVQAGGSLRLSCAASGSTLASYAMGWYKQAPGKERELVAAISRGGGSTFYADSVKGRFTISRDNAKNTVYLQMNSLKPEDTAVYYCAAFGRYYYIYDYWGQGTQVTVSS | high polyreactivity
15 | QVQLVESGGGLVQAGGSLRLSCAASGRTIRRYAMGWYRQAPGKERELVAAITISGGSTYYADSVKGRFTISRDNAKNTVYLQMNSLKPEDTAVYYCAAQPWRALGYYYWGQGTQVTVSS | high polyreactivity
16 | QVQLVESGGGLVQAGGSLRLSCAASGFTFWGYAMGWYRQAPGKERELVAGITRSGGNTYYADSVKGRFTISRDNAKNTVYLEMNSLKPEDSAVYYCAKRHFWNLTPYYFYRTIPDYYWGQGTQVTVSS | high polyreactivity

Row | Sequence | polyreactivity (PSR sort gate)
17 | QVQLVESAGGLVQAGGSLRLSCAASGRIFYLYAMGWYRQAPGQERELVARITSGSGTYYADSVKGRFTISRDNAKNTVYLQMNSLKPEDTGVYYCAAREPGVCFVGHYTGLDYWGQGTQVTVSS | low polyreactivity
18 | QVQLVESGGGLVQAGGSLRLSCAASGSTFLDYAMGWYRQAPGKERELVAGINSGGSTNYADSVKGRFTISRDNAKNTVYLQMNSLKPEDTAVYYCAADRVGNEYDYWGQGTQVTVSS | low polyreactivity
19 | QVQLVESGGGLVQAGGSLRLSCAASGSTFSKYAMGWYRQAPGKERELVAAITRTTGRTYYADSVKGRFSISRDNAKNTVYLHMNSLKPEDTAVDYCAARSPYYRAYKYDYWGQGTQVTVSS | high polyreactivity
20 | LVQLVQSGGGLVQAGGSLRLSCAASGRTFIGYAMGWYRQAPGKERELVAAITSDGGTNYADSVKGRFTISRDNAKNTVNLLMNSLKPEDTAVYDCAARRRVSYHLYGYWGQGTQVTVSS | high polyreactivity
21 | QVQLVESGGGLVQAGGSLRLSCAASGYTFIHNAMGWYRQAPGKERELVAAINRSGGITNYADSVKGRFTISRDNAKNTVYLQMNSLKPEDTAVYYCNADVDPLPPRYLHREVLKEYNYWGQGTQVTVSS | low polyreactivity
22 | QVQLGESGGGLVQAGGSIRLSCAASGRTFYGYAMGWYRQAPGTERELVAAISYSGARTYYADSVKGRFTISRDNAKHTVNLQMNSLKPEDTAVYYCAATRAYWIGHLDYWGQGTQVTVSS | high polyreactivity
23 | QVQLVESGGGLVQAGGSLRLSCAACGSTFYVNTMGWYRQAPGKERELVAAITDSGVGTYADSVKGRFTISRDNAKNTVYLQMNSLKPEDTAVYYCNADGRYYDDETYDYWGQGTQVTVSS | low polyreactivity
24 | QVQLVESGGGLVQAGGSLRLSCAASGSTFLGYAMGWYRQAPGKERELVAVIDNGGDTYYADSVKGRFTISRDNAKNTVYLQINSLKPEDTEVYYCAADLSYLGYWEYDYWGQGTQVTVSS | low polyreactivity
25 | QVQLVESGGGLVQAGGSLRLSCAASGSTFKYNAMGWYRQAPGKERELVASISRSGGSTYYADSVKGRFTISRDNAKNTVYLQMNSLKPEDTAVYYCNVRRFVHYEYWGHGTQVTVSS | high polyreactivity
26 | QVQRVECGGGLVLAGGSLRLSCAASGRILVFYAMGWYRQARGKVRELVATITDTGRTNYADSVKGRCTISRDNAKKTDSLQMTSQKPEDTAVYYCAKQRDYGFPWATYDYWGQGTQGTVSS | low polyreactivity
27 | QVQLVESGGGLVQAGGSLRLSCAASGRIIYAYAMGWYRQTPGKERELVAAISTRGGTTYYADSVKGRFTISRDNAKNTVYLQMNSLKPEDTAVYYCNALRVSRRVGYDSWGKGTQVTVSS | high polyreactivity
28 | QVQLVESGGGLVQAGGSLRLSCAASGFIFRSYAMGWYRQAPGKERELVAANSSSGGRTYYADSVKGRFTISRDNAKNTVYLQMNSLKPEDTAVYYCATSLYTDNSWDNYWGQGTQVTVSS | high polyreactivity
29 | QVQLVESGGGVVQAGGSLRLSCAASGIIFLYNVMGWYRQAPAKERELVAAISWRGGTYYAHSVKGRFTISRDNAKNSVYLQMNSLKPEDTAVYYCNTYPAASLYGFSYPYRYDSWGQGTQVTVSS | high polyreactivity
30 | QVQLVESGGGLVQAGGSLRLSCAASGFTFKYNVMGWYRQAPGKERELVAAISKRGGNTYYADSVKGRFTISRDNAKNTVYLQMNSLKPEDTAVYYCAADPTSPETSGQGYDYWGQGTQVTVSS | high polyreactivity
31 | QVQLVESGGGLVQAGGSLRLSCAASGYIFYGYVMGWYRQAPGKERELVAGITYSGGGGTHYADSVKGRFTISRDNAKNTVYLQMNSLKPEDNAVYYCAKADPQLNRTYYSYGMDYWGQGTQVTVSS | low polyreactivity
